Test results from paper PMC2289750 (The Journal of Cell Biology, 1992).

Biological target: T1, zyxin (chicken, UniProt Q04584 1-542, 125I (radioiodinated using Iodogen))
T1 sequence (looked up): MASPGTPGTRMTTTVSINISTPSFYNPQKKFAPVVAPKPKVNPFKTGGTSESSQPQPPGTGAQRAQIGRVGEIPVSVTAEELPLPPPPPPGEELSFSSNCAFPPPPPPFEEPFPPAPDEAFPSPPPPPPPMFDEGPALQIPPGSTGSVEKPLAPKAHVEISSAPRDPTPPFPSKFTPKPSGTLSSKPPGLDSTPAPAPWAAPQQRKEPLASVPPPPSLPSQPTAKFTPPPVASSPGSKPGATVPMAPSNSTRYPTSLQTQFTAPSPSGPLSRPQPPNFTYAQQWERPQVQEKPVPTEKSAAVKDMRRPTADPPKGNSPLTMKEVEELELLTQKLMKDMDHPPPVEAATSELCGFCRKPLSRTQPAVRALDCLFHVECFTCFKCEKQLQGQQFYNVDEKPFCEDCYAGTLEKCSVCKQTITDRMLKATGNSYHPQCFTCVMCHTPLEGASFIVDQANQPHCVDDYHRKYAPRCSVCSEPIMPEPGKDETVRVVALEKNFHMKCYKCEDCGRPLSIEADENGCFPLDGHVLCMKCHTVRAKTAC
Test: far-Western, overlay or dot blot

binding result: binds
B1: chicken Cysteine-Rich Protein (cCRP) (natural protein)
chain: MPNWGGGKKCGVCQKAVYFAEEVQCEGSSFHKSCFLCMVCKKNLDSTTVAVHGDEIYCKSCYGKKYGPKGYGYGMGAGTLSTDKGESLGIKYEEGQSHRPTNPNASRMAQKVGGSDGCPRCGQAVYAAEKVIGAGKSWHKSCFRCAKCGKSLESTTLADKDGEIYCKGCYAKNFGPKGFGFGQGAGALIHSQ
